Where no end group is shown, it is not given here.
Target: T1, Smad3, recombinant (pET28a) (UniProt Q8BUN5 1-425)
T1 construct: the His tag is inferred from the vector only; also called free Smad3; source: bacterial overexpression (pET28a), purified
Assay: BLI; Octet RED96; 50 ug/ml Biotin-labeled Dleu2-17aa immobilised on streptavidin biosensors; 100 mM Tris-HCl pH 8.0, 20 mM MgCl2, 200 mM KCl, 0.1 mg/mL BSA; Smad3 at 1.67-53.3 uM, association 800 s, dissociation in DPBS (0.5% BSA) 180 s; RT
Details: both partners purified

T1 sequence (Q8BUN5 whole entry): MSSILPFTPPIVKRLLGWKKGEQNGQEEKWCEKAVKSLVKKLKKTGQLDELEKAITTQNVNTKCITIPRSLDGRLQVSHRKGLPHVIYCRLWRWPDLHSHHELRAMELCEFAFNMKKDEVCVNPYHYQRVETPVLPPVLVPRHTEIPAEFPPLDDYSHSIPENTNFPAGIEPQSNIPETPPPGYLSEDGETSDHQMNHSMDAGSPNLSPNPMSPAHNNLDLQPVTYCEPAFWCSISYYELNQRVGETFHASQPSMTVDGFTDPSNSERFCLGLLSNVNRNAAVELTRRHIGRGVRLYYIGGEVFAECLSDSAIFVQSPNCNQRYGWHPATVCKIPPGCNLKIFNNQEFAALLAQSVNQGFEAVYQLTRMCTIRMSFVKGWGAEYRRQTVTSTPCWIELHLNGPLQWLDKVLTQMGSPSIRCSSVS

B1: Biotin-labeled Dleu2-17aa (peptide)
peptide: MLGRRARRRGRGRRRPA
modifications: also: biotin-labeled, position not given here
notes: Dleu2-17aa, 17-amino-acid micropeptide encoded by a short ORF in the first exon of the mouse lncRNA Dleu2; also called Biotin-Dleu2-17aa; biotinylated Dleu2-17aa
  Kd: 2430 nM

Source: publication PMC10933344, “A lncRNA Dleu2-encoded peptide relieves autoimmunity by facilitating Smad3-mediated Treg induction” (EMBO Reports, 2024)
